Experiment [1] has as its target T1, recombinant human TGF-β RII/Fc chimera protein (R&D systems, cat no. 341-BR) (human, UniProt P37173 23-166).
T1 construct: extracellular domain; Bought protein, expressed in the mouse myeloma line NS0; also called hTGFb-RII/Fc; hTFGβ-RII-Fc; not shown: Fc region of human IgG1
In words: ELISA, plate coated with human TGF-β RII/Fc, dAb supernatant, anti-FLAG detection. The protocol: dAb clones that bound human TGF-β RII/Fc were identified by an ELISA. 96-well MAXISORP™ immuno plates (Nunc, Denmark) were coated with human TGF-β RII/Fc overnight at 4° C. The wells were washed three times with PBST and then blocked with 1% TWEEN™ in PBS (1% TPBS) for 1 hour at room temperature. The block was removed and a 1:1 mixture of 1% TPBS and dAb supernatant was added for 1 hour at room temperature. The plate was washed with three times with PBST and the detection antibody (Monoclonal anti-FLAG M2-peroxidase antibody, Sigma-aldrich, UK) was added and incubated for 1 hour at room temperature. The plates were developed using a colourimetric substrate (SUREBLUE™ 1-component TMB Microwell Peroxidase solution, KPL, Maryland, USA) and the optical density (OD) measured at […], the OD₄₅₀ being proportional to the amount of bound detection antibody.
Background: An ELISA detects its analyte on a solid surface through an enzyme-linked reagent.

For experiment [2], the target named is T1, recombinant human TGF-β RII/Fc chimera …. In words: SPR (BIACORE 3000), hTGFb-RII/Fc coupled to a CM5 chip, co-inject; injection 1 = DOM23h-437-9 alone at 100 nM. The protocol: (§1) The SPR experiments were performed on a BIACORE™ 3000 instrument (BIACORE™, GE […]®, Sweden). hTGFb-RII/Fc antigen at 50 ug/ml in 10 mM sodium acetate buffer, pH 4 (BIACORE™, GE […]®, Sweden) was coupled to a CM5 sensor chip (BIACORE™, GE […]®, Sweden), according to the manufacturer's instructions. Approximately 5500 RUs of antigen were coupled. A blank flow cell was used as a reference. Purified dAbs were diluted in HBS-EP buffer (BIACORE™, GE […]®, Sweden) and flowed over the antigen-coated and blank flow cells at a rate of 30 μl/minute using the co-inject command. The coinject command allows the injection of a second sample immediately after the first one. The first injection consisted of a single dAb and the second injection consisted of a mixture of the first dAb and a second dAb. All dAbs were used at concentrations high enough to bind the antigen surface with maximal capacity. If the maximal binding capacity of the antigen surface by the first dAb can be exceeded by injecting the mixture of the two dAbs, the second dAb is likely to […] a different binding site or epitope on the antigen. If no further binding is observed following the second injection, then the two dAbs are likely to compete for the same antigen binding site. […]
On the technique in general: SPR reads the build-up and loss of mass on a sensor chip optically.

Experiment [3] shares this target. In words: SPR (BIACORE 3000), hTGFb-RII/Fc coupled to a CM5 chip, co-inject; injection 1 = DOM23h-437-6 alone at 100 nM. As for the experimental part:
as §1

In experiment [4] the target is human TGF-β receptor type II on human cells (A549, SBE-bla HEK 293T) (human, UniProt P37173 23-567). Nature of the experiment: cell-based or functional assay.
Chain of human TGF-β receptor type II on human cells (A549, SBE-bla HEK 293T) (P37173 23-567): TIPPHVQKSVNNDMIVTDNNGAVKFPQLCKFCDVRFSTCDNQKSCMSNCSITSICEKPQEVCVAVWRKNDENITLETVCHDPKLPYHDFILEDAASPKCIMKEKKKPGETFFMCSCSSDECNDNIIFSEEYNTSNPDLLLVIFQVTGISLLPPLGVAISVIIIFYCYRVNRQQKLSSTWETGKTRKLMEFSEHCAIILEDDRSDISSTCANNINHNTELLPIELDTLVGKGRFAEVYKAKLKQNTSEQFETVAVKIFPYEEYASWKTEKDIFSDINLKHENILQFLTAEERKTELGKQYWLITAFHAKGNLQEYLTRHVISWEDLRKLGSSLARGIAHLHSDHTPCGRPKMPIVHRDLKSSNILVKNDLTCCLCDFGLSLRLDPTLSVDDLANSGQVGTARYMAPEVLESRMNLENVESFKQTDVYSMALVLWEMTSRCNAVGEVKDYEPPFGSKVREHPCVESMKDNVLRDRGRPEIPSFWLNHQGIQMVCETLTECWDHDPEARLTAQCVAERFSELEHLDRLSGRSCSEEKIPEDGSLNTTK
Experiment [5] deals with T1, recombinant human TGF-β RII/Fc chimera …. Nature of the experiment: SPR (BIACORE 3000), hTGFb-RII/Fc coupled to a CM5 chip, co-inject; injection 2 = mixture of DOM23h-437-6 (100 nM) and DOM23h-271-3 (500 nM) on a surface saturated with DOM23h-437-6. As for the experimental part: as §1
The target is the same in experiment [6]. In words: SPR (BIACORE 3000), hTGFb-RII/Fc coupled to CM5 chip, 100 nM dAb co-injected with 100 nM DOM23h-437-9 (competitor). As for the experimental part: as §1
Experiment [7] shares this target. Nature of the experiment: SPR (BIACORE 3000), hTGFb-RII/Fc coupled to a CM5 chip, co-inject; injection 2 = mixture of DOM23h-437-6 (100 nM) and DOM23h-439-6 (500 nM) on a surface saturated with DOM23h-437-6. As for the experimental part:
as §1

This is an account of results in patent publication US20120129778A1 (GlaxoSmithKline, published 2012).

Where a chain is given by its changes, count along the chain named. In names and notes the source's numbering stands.

T1 sequence (P37173 23-166, change not shown): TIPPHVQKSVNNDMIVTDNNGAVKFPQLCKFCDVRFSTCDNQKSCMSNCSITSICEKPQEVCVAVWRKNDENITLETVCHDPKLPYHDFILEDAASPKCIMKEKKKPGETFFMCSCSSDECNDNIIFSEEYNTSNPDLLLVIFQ

B1: DOM23h-437 (other)
VH: EVQLLESGGGLVQPGGSLRLSCAASGFTFSDYRMWWVRQAPGKGLEWVSAIDSQGHTTYYADSVKGRFTISRDNSKNTLYLQMNSLRAEDTAVYYCAKYGGYFDYWGQGTLVTVSS
notes: VH dAb
With B1, the binding result in experiment [1] is given as “binds”.

B2: DOM23h-251 (other)
chain: EVQLLESGGGLVQPGGSLRLSCAASGFTFSDYDMWWVRQAPGKGLEWVSKITQKGDFTYYADSVKGRFTISRDNSKNTLYLQMNSLRAEDTAVYYCAKDATHFDYWGQGTLVTVSS
notes: Naive dAb
B2: in experiment [1], the binding result is on record as “binds”.

B3: DOM23h-33 (other)
chain: B2 chain with D31Q, D33R, K50A, T52A, Q53P, K54S, F57N, D99H, A100R, H102S
notes: Naive dAb (immunoglobulin single variable domain)
For the molecule B3, the binding result in experiment [1] is on record as “binds”.

B4: DOM23h-440 (other)
chain: B1 VH with S30T, Y32D, S53P, H56Q, T57H, Y99E, G100L, G101L, Y102S
notes: Naive dAb
B4: the binding result in experiment [1] is “binds”.

B5: DOM23h-436 (other)
chain: EVQLLESGGGLVQPGGSLRLSCAASGFTFSDYKMGWVRQAPGKGLEWVSSIWPNGGLTYYADSVKGRFTISRDNSKNTLYLQMNSLRAEDTAVYYCAKDHMGFDYWGQGTLVTVSS
notes: Naive dAb
For the molecule B5, the binding result in experiment [1] is reported as “binds”.

B6: DOM23h-435 (other)
chain: B1 VH with S21T, S30T, Y32D, S53P, H56Q, T57H, Y99H, G100N, G101S, Y102S
notes: Naive dAb
In the case of B6, in experiment [1], the binding result is “binds”.

B7: DOM23h-437-9 (other)
VH: B1 VH with A24T, D62N, K65R
notes: VH dAb; also called DOM437-9
For B7, in experiment [2], the binding result is listed as “binds”.

B8: DOM23h-437-6 (other)
VH: B1 VH with A24T
notes: VH dAb
For the molecule B8, the binding result in experiment [3] is given as “binds”.

B9: DOM23h-262-6 (other)
VH: EVQLLESGGGLVQPGGSLRLSCAASGFTFFNYEMAWARQAPGKGLEWVSLISAEGTRTYYANSVKGRFTISRDNSKNTLYLQMNSLRAEDTAVYYCAKRRDASMGHTTRRFDHWGQGTLVTVSS
For B9, in experiment [4], the “potency in the A549 IL-11 release assay relative to DOM23h-262” value was determined as 54 fold.

B10: DOM23h-262 (other)
VH: B9 VH with N62D, H113Y
notes: Domain antibody (dAb), human immunoglobulin single variable domain, soluble monomer
B10: in experiment [1], the binding result is on record as “binds”.

B11: DOM23h-262-10 (other)
VH: B9 VH with Q39R, E54D, K65R, H113Y, W114S
As for B11, the “potency in the A549 IL-11 release assay relative to DOM23h-262” value in experiment [4] stood at 540 fold.

B12: DOM23h-348 (other)
chain: EVQLLESGGGLVQPGGSLRLSCAASGFTFSDYDMAWARQAPGKGLEWVSRISHSGYSTYYADSVKGRFTISRDNSKNTLYLQMNSLRAEDTAVYYCAKRSWDGVHAQFDYWGQGTLVTVSS
notes: Naive dAb
With B12, in experiment [1], the binding result is “binds”.

B13: DOM23h-271-3 (other)
VH: EVQLLESGGGLVQPGGSLRLSCTASGFTFTEYRMWWVRQAPGKGLEWVSLIEPIGNRTYYADSVKGRFTISRDNSKNTLYLQMNSLRAEDTAVYYCAKQIPGHMWTANPRSDYWGQGTQVTVSS
notes: VH dAb
For the molecule B13, the binding result in experiment [5] is “binds”.

B14: DOM23h-271 (other)
VH: B13 VH with T23A, L50S, M104K, P109S, S111F, Q119L
notes: VH dAb
B14: the binding result in experiment [1] is “binds”.

B15: DOM23h-271-12 (other)
VH: B13 VH with D62N, K65R
notes: VH dAb; also called DOM23h-271-3 + D61N + K64R
Consider B15, for which the binding result in experiment [6] is “binds”.

B16: DOM23h-439-6 (other)
VH: EVQLLESGGGLVRPGGSLRLSCAASGFTFGTEQMWWVRQAPGKGLEWVSRIDSPGGRTYYADSVRGRFTISRDNSKNTLYLQMNSLRAEDTAVYYCAKRHAAGVSGTYFDYWGQGTLVTVSS
notes: VH dAb, already contains K64R
In the case of B16, the binding result in experiment [7] is reported as “binds”.

B17: DOM23h-439-8 (other)
VH: B16 VH with D62N
notes: VH dAb; also called DM23h-439-8; DOM23h-439-6 + D61N + K64R
Turning to B17, the binding result in experiment [6] is recorded as “binds”.

B18: DOM23h-439 (other)
VH: B16 VH with R13Q, R65K
notes: VH dAb
For the molecule B18, in experiment [1], the binding result is “binds”.

B19: DOM23h-438 (other)
chain: EVQLLESGGGLVQPGGSLRLSCAASGFTFAQGDMWWVRQAPGKGLEWVSRIGMDGDKTYYADSVKGRFTISRDNSKNTLYLQMNSLRAEDTAVYYCAKGPSSTSPFDYWGQGTLVTVSS
notes: Naive dAb
B19: the binding result in experiment [1] is “binds”.
